Measurements as given in US20220389379A1, “PRIMARY BREAST EPITHELIAL CELL CULTURE MEDIUM, CULTURE METHOD AND USE THEREOF” (PRECEDO PHARMACEUTICALS CO., LTD, priority 2019, published 2022).

Tested on: primary breast tumor epithelial cells isolated from breast cancer tissues (HMFL-XN1, HMFL-XN3, HMFL-XN4, HMFL-XN6, HMFL-XN8)
Assay: Optimization of primary breast epithelial cell culture medium: cell count after culture with medium additives
Format: cell-based, human
Design: key: +: compared with the basis medium, the medium added with the additive(s) can promote the proliferation of primary breast tumor epithelial cells isolated from at least three cases of breast cancer tissues; −: the medium added with the additive(s) has the effect of inhibiting proliferation of primary breast tumor epithelial cells isolated from at least two cases of breast cancer tissues; ○: the medium added with this additive(s) has no significant effect on the proliferation of primary breast tumor epithelial cells isolated from at least three cases of breast cancer tissues
Conditions: additive at the concentration given in Table 1 added to basis medium; cell count after 10 days of culture, compared with basis medium; five breast cancer samples
Procedure: Matrigel (registered trademark) (manufactured by BD Biosciences) was diluted at 1:100 in serum-free DMEM/F12 medium to prepare an extracellular matrix dilution, which was added to a 48-well culture plate with 200 μl/well to completely cover the bottom of the wells of the culture plate. The resultant was let stand for 1 hour in a 37° C. incubator. After 1 hour, the extracellular matrix dilution was removed to provide a Matrigel-coated plate.
First, a basis medium was prepared. To a commercial DMEM/F-12 medium, GlutaMAX-I (manufactured by Thermo Fisher SCIENTIFIC) was added at the specified concentration (1:100 dilution), human insulin (manufactured by Sigma) was added at a final concentration of 10 μg/ml, ROCK kinase inhibitor Y27632 (manufactured by Sigma) was added at a final concentration of 10 μM, and penicillin-streptomycin (manufactured by Thermo Fisher SCIENTIFIC) was added at a 1:100 dilution ratio, which provides the basis medium.
Next, different types of additives (as shown in Table 1) were added to the basis medium to prepare breast epithelial cell culture mediums containing different supplementary components, and the mediums with different components were added at a volume of 500 μl/well to 48-well plates which were coated with extracellular matrix gel (Matrigel). Breast tumor cells (HMFL-XN1) isolated from breast cancer tissue in step (1) of this Example were inoculated in a Matrigel-coated 48-well culture plate at a cell density of 1×10^4 cells/well, and equal numbers of freshly isolated breast tumor cells (HMFL-XN1) were cultured under different medium formulations at 37° C., under 5% CO2 concentration and 20% oxygen concentration. The medium was renewed every 4 days after the start of the culture. After 10 days of culture, cell counts were performed. As an experiment control, the basis medium without any additives was used. Breast tumor cells isolated from the remaining four breast cancer tissue samples were cultured and counted in the same manner as above.

B1: Fibroblast growth factor 10: fibroblast growth factor 10 (FGF10), medium additive (protein, UniProt O15520 38-208, looked up)
Fibroblast growth factor 10: QALGQDMVSPEATNSSSSSFSSPSSAGRHVRSYNHLQGDVRWRKLFSFTKYFLKIEKNGKVSGTKKENCPYSILEITSVEIGVVAVKAINSNYYLAMNKKGKLYGSKEFNNDCKLKERIEENGYNTYASFNWQHNGRQMYVALNGKGAPRRGQKTRRKNTSAHFLPMVVHS
  Degree of cell: +

B2: Amphiregulin: human amphiregulin (R&D Systems), medium additive (protein, UniProt P15514 101-187, looked up)
Amphiregulin: SVRVEQVVKPPQNKTESENTSDKPKRKKKGGKNGKNRRNRKKKNPCNAEFQNFCIHGECKYIEHLEAVTCKCQQEYFGERCGEKSMK
  Degree of cell: +

B3: Interleukin 10: medium additive (R&D) (protein, UniProt P22301 19-178, looked up)
Interleukin-10: SPGQGTQSENSCTHFPGNLPNMLRDLRDAFSRVKTFFQMKDQLDNLLLKESLLEDFKGYLGCQALSEMIQFYLEEVMPQAENQDPDIKAHVNSLGENLKTLRLRLRRCHRFLPCENKSKAVEQVKNAFNKLQEKGIYKAMSEFDIFINYIEAYMTMKIRN
  Degree of cell: ○

B4: R-spondin1: R-spondin family protein, medium additive (protein, UniProt Q2MKA7 21-263, looked up)
R-spondin-1: SRGIKGKRQRRISAEGSQACAKGCELCSEVNGCLKCSPKLFILLERNDIRQVGVCLPSCPPGYFDARNPDMNKCIKCKIEHCEACFSHNFCTKCKEGLYLHKGRCYPACPEGSSAANGTMECSSPAQCEMSEWSPWGPCSKKQQLCGFRRGSEERTRRVLHAPVGDHAACSDTKETRRCTVRRVPCPEGQKRRKGGQGRRENANRNLARKESKEAGAGSRRRKGQQQQQQQGTVGPLTSAGPA
  Degree of cell: ○

B5: R-spondin3: R-spondin family protein, medium additive (protein, UniProt Q9BXY4 22-272, looked up)
R-spondin-3: QNASRGRRQRRMHPNVSQGCQGGCATCSDYNGCLSCKPRLFFALERIGMKQIGVCLSSCPSGYYGTRYPDINKCTKCKADCDTCFNKNFCTKCKSGFYLHLGKCLDNCPEGLEANNHTMECVSIVHCEVSEWNPWSPCTKKGKTCGFKRGTETRVREIIQHPSAKGNLCPPTNETRKCTVQRKKCQKGERGKKGRERKRKKPNKGESKEAIPDSKSLESSKEIPEQRENKQQQKKRKVQDKQKSVSVSTVH
  Degree of cell: ○

B6: Fibroblast growth factor 7: fibroblast growth factor 7 (FGF7), medium additive (protein, UniProt P21781 32-194, looked up)
Fibroblast growth factor 7: CNDMTPEQMATNVNCSSPERHTRSYDYMEGGDIRVRRLFCRTQWYLRIDKRGKVKGTQEMKNNYNIMEIRTVAVGIVAIKGVESEFYLAMNKEGKLYAKKECNEDCNFKELILENHYNTYASAKWTHNGGEMFVALNQKGIPVRGKKTKKEQKTAHFLPMAIT
  Degree of cell: +

B7: Noggin: medium additive (R&D) (protein, UniProt Q13253 28-232, looked up)
Noggin: QHYLHIRPAPSDNLPLVDLIEHPDPIFDPKEKDLNETLLRSLLGGHYDPGFMATSPPEDRPGGGGGAAGGAEDLAELDQLLRQRPSGAMPSEIKGLEFSEGLAQGKKQRLSKKLRRKLQMWLWSQTFCPVLYAWNDLGSRFWPRYVKVGSCFSKRSCSVPEGMVCKPSKSVHLTVLRWRCQRRGGQRCGWIPIQYPIISECKCSC
  Degree of cell: ○
